Results published in publication PMC12056058 (Nature Communications, 2025).
Positions count from the first letter of the chain named. Numbers in names are those of the source. Blank lines part the entries; values can stand above or below the molecule they belong to.

Columns and labels:
[1] = target: T1, Fis1 (mitochondrial fission protein 1), cytosolic domain (Homo sapiens, UniProt Q9Y3D6, T34D); assay: CPM thiol fluorescence competition; format: binding; settings: read-out: apparent IC50
T1 construct: cytosolic domain, C-terminal HRV 3C site and His6 tag (cut off), codon optimized, E. coli BL21(DE3); first 30 residues disordered in mutant crystals
T1 sequence (Q9Y3D6 1-123 T34D): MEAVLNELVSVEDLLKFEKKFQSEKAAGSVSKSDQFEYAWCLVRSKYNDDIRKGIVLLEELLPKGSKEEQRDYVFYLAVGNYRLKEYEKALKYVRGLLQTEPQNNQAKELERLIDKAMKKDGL

[2] = target: the molecule itself; assay: crystal structure; tag-free Fis1 protein/mutant at 8 mg/ml, sitting drop; data at 100 K, SSRL BL12-2; molecular replacement with PDB 1NZN

IC50 [1]: 9.4 µM
Molecule: CN(CCCN1c2ccccc2Sc2ccccc21)C(=O)CCl [SP11, N-(3-(10H-phenothiazin-10-yl)propyl)-2-chloro-N-methylacetamide]

IC50 [1]: 15.4 µM
Molecule: C=CC(=O)N(C)CCCN1c2ccccc2Sc2ccccc21 [SP22, N-(3-(10H-phenothiazin-10-yl)propyl)-N-methylacrylamide]

B1: Thr34Asp Fis1, cytosolic domain, tag-free (domain or fragment, human)
chain: T1 sequence (Q9Y3D6 1-123 T34D)
notes: Mitochondrial fission protein 1 (Fis1), human, cytosolic domain; also called T34D; phosphorylation mimic-mutant; source: E. coli BL21 (DE3), purified (Ni-NTA, HRV 3C cleavage, reverse Ni-NTA); not shown: His6, C-terminal, cleaved
binding result [2]: binds

B2: Thr34Glu Fis1, cytosolic domain, tag-free (domain or fragment, human)
chain: T1 sequence (Q9Y3D6 1-123 T34D) with D34E
notes: Mitochondrial fission protein 1 (Fis1), human, cytosolic domain; also called phosphorylation mimic-mutant; source: E. coli BL21 (DE3), purified (Ni-NTA, HRV 3C cleavage, reverse Ni-NTA); not shown: His6, C-terminal, cleaved
binding result [2]: binds

B3: Tyr38Glu Fis1, cytosolic domain, tag-free (domain or fragment, human)
chain: T1 sequence (Q9Y3D6 1-123 T34D) with D34T, Y38E
notes: Mitochondrial fission protein 1 (Fis1), human, cytosolic domain; also called Y38E; phosphorylation mimic-mutant; source: E. coli BL21 (DE3), purified (Ni-NTA, HRV 3C cleavage, reverse Ni-NTA); not shown: His6, C-terminal, cleaved
binding result [2]: binds
